For orientation: Kd means the equilibrium constant for the complex coming apart.

Assay [1] deals with FITC labeled GKAP C-terminus peptide (CT12) (human). Description: fluorescence polarisation. (Fluorescence polarisation rises when a labelled molecule tumbles more slowly, as on binding a larger partner.)
Assay [2] deals with 6xHis-tagged GH1 or CT43 protein (ligand of the Ni-NTA BLI) (rat) (UniProt P97836). Description: BLI. Background: BLI is a label-free optical method that tracks binding on a fibre tip over time.
Chain of 6xHis-tagged GH1 or CT43 protein (ligand of the Ni-NTA BLI) (rat) (P97836 807-992): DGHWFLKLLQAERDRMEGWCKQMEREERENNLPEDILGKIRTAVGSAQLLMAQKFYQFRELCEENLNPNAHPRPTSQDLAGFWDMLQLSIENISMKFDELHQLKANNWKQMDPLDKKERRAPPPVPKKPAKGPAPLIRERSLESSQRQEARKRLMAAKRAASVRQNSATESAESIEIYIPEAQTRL
Assay [3] deals with GST-tagged 12 amino acid ARAP3 peptide (human). Description: BLI.
For assay [4], the target named is GST-tagged 12 amino acid βPIX peptide (human). Description: BLI.
The target of assay [5] is GST-tagged 12 amino acid mTOR peptide (human). Description: BLI.
Assay [6] addresses GST-tagged 12 amino acid ATG13 peptide (human). Description: BLI.

“Shank1-PDZ G734S variant (domain or fragment)” yielded a dissociation constant (Kd) in assay [1] of 10.6 µM.
As for “Shank1-PDZ R679W variant (domain or fragment)”, the Kd in assay [2] amounted to 14.5 µM; in assay [1], 325 µM.
The substance “Shank1-PDZ R736Q variant (domain or fragment)” showed a Kd in assay [1] of 2.55 µM. In other words, the single-digit micromolar range.
In assay [1], “Shank1-PDZ R743H variant (domain or fragment)” had a Kd of 7.62 µM.
As for “Shank1-PDZ V677M variant (domain or fragment)”, in assay [1], the Kd was determined as 16.9 µM.
On to “wild type Shank1-PDZ domain (domain or fragment)”, for which the Kd amounted to 35.8 µM in assay [3]; 1.5 µM in assay [2]; 23.2 µM in assay [4]; 720 µM in assay [5]; 39.1 µM in assay [6]; 4.59 µM in assay [1].

The values are drawn from publication doi:10.1101/2025.07.03.662971.
